Residue numbers refer to the chain shown, from its start.
What was measured:
human TIM-3 on cells [1] = molecular target: T1, human TIM-3 on cells (human, UniProt Q8TDQ0 22-301); test: cell-based or functional assay
human TIM-3 on cells [2] = molecular target: T1, human TIM-3 on cells; test: cell-based or functional assay; remark: listed apart in the source
[3] = molecular target: T2, murine FolR1 ECD-AcTev-Fcknob-Avitag + Fc hole, biotinylated monomeric Fc fusion (murine, UniProt P0DOX5 223-449 = IgG part); test: SPR, IgG single injection
T2 construct: also called muFolR1; murine FolR1-Fc

[4] = molecular target: human FolR2 on transiently transfected HEK cells (human, UniProt P14207 17-230); test: flow cytometry on HEK cells transiently transfected with human FolR2, anti-human secondary antibody; concentration not given
Sequence of human FolR2 on transiently transfected HEK cells (P14207 17-230 limits assumed): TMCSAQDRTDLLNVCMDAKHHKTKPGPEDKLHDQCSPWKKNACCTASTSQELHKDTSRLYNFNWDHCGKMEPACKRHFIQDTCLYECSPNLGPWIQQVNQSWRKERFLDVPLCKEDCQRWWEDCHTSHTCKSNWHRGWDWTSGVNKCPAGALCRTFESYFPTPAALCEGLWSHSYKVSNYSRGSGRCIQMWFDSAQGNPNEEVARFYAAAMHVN

[5] = molecular target: T2, murine FolR1 ECD-AcTev-Fcknob-Avitag + …; test: SPR ProteOn, Fab analyte
Method: Immobilization of antigens (ligand): Recombinant antigens were diluted with PBST (10 mM phosphate, 150 mM sodium chloride pH 7.4, 0.005% Tween 20) to 10 μg/ml, then injected at 30 μl/minute in vertical orientation. Injection of analytes: For ‘one-shot kinetics’ measurements, injection direction was changed to horizontal orientation, two-fold dilution series of purified Fab (varying concentration ranges) were injected simultaneously along separate channels 1-5, with association times of 150 or 200 s, and dissociation times of 200 or 600 s, respectively. Buffer (PBST) was injected along the sixth channel to provide an “in-line” blank for referencing. Association rate constants (kₒₙ) and dissociation rate constants (koff) were calculated using a simple one-to-one Langmuir binding model in ProteOn Manager v3.1 software by simultaneously fitting the association and dissociation sensorgrams. The equilibrium dissociation constant (KD) was calculated as the ratio koff/kₒₙ.

cynomolgus Tim3 (ELISA) [6] = molecular target: T3, cynomolgus Tim3 (ELISA) (cynomolgus, UniProt A0A2K5U3G7 22-193); test: ELISA, cyno Tim3; EC50 relative to the sample's max value
T3 construct: also called Biochem Cyno; cyno TIM3
T3 sequence: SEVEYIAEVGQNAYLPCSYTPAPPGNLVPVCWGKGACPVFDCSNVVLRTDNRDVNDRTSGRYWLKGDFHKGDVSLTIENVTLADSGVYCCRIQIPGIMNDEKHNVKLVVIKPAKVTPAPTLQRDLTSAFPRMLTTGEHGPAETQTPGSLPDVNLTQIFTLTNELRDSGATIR

cynomolgus Tim3 (ELISA) [7] = molecular target: T3, cynomolgus Tim3 (ELISA); test: ELISA, cyno Tim3
human TIM-3 on cells [8] = molecular target: T1, human TIM-3 on cells; test: cell ELISA, CHO-Tim3; EC50 relative to the sample's max value
Tim3-ECD-His-Biotin [9] = molecular target: T4, Tim3-ECD-His-Biotin (human, UniProt Q8TDQ0 22-202); test: ELISA, human Tim3
T4 construct: also called human Tim3 (ELISA); Biochem Human

human TIM-3 on cells [10] = molecular target: T1, human TIM-3 on cells; test: cell ELISA, CHO-Tim3
Tim3-ECD-His-Biotin [11] = molecular target: T4, Tim3-ECD-His-Biotin; test: ELISA, human Tim3; EC50 relative to the sample's max value
[12] = molecular target: T5, human FolR1 ECD-AcTev-Fcknob-Avi tag + Fc hole, biotinylated monomeric Fc fusion (human, UniProt P0DOX5 223-449 = IgG part); test: SPR ProteOn, Fab analyte;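 further: recombinant antigens immobilized, purified Fab two-fold dilutions injected in parallel channels, 200 s association and 600 s dissociation, buffer-only channel as in-line reference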
T5 construct: also called huFolR1; huFolR1-Fc
Method: (§1) Immobilization of antigens (ligand): Recombinant antigens were diluted with PBST (10 mM phosphate, 150 mM sodium chloride pH 7.4, 0.005% Tween 20) to 10 μg/ml, then injected at 30 μl/minute in vertical orientation.
(§2) Injection of analytes: For ‘one-shot kinetics’ measurements, injection direction was changed to horizontal orientation, two-fold dilution series of purified Fab (varying concentration ranges) were injected simultaneously along separate channels 1-5, with association times of 200 s, and dissociation times of 600 s. Buffer (PBST) was injected along the sixth channel to provide an “in-line” blank for referencing. Association rate constants (kₒₙ) and dissociation rate constants (koff) were calculated using a simple one-to-one Langmuir binding model in ProteOn Manager v3.1 software by simultaneously fitting the association and dissociation sensorgrams. The equilibrium dissociation constant (KD) was calculated as the ratio koff/kₒₙ.

[13] = molecular target: T2, murine FolR1 ECD-AcTev-Fcknob-Avitag + …; test: SPR ProteOn, Fab analyte; remark: listed apart in the source
Method: as §1, §2

[14] = molecular target: T6, cynomolgus FolR1 ECD-AcTev-Fcknob-Avi tag + Fc hole, biotinylated monomeric Fc fusion (cynomolgus, UniProt P0DOX5 223-449 = IgG part); test: SPR ProteOn, Fab analyte;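 further: recombinant antigens immobilized, purified Fab two-fold dilutions injected in parallel channels, 200 s association and 600 s dissociation, buffer-only channel as in-line reference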
T6 construct: also called cyFolR1; cyno FolR1-Fc
Method: as §1, §2

[15] = molecular target: T7, human FolR2 ECD-AcTev-Fcknob-Avi tag + Fc hole, biotinylated monomeric Fc fusion (human, UniProt P0DOX5 223-449 = IgG part); test: SPR ProteOn, Fab analyte;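 further: recombinant antigens immobilized, purified Fab two-fold dilutions injected in parallel channels, 200 s association and 600 s dissociation, buffer-only channel as in-line reference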
T7 construct: also called huFolR2; FolR2-Fc
Method: as §1, §2

[16] = molecular target: T8, human FolR3 ECD-AcTev-Fcknob-Avi tag + Fc hole, biotinylated monomeric Fc fusion (human, UniProt P0DOX5 223-449 = IgG part); test: SPR ProteOn, Fab analyte;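 further: recombinant antigens immobilized, purified Fab two-fold dilutions injected in parallel channels, 200 s association and 600 s dissociation, buffer-only channel as in-line reference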
T8 construct: also called huFolR3; FolR3-Fc
Method: as §1, §2

B1: Tim3_0022 Fab-PE24 construct (Fab, V domains shown)
VH: EVQLQESGPSLVKPSQTLSLTCSVTGDSIASAYWNWIRKFPGNKLEYMGYINYSGSTYYNPSLKSRISITRDTSQNQYYLQLNSVTTEDTATYYCVTGDYFDYWGRGTTLTVSS
VL: DIQMTQSPSSLSAYLGGKVTITCKARQDVRKNIGWYQHKPGKGPRLLIWYTSTLQSGIPSRFSGSGSGRDYSFNINNLEPEDIATYYCLQYDNLPFTFGTGTKLEIR
Human TIM-3 on cells [1]
  IC50 cytotoxicity, primary AML CD34+ PB0135: > 691 nM
  IC50 cytotoxicity, primary AML CD34+ PB0136: > 691 nM
Human TIM-3 on cells [2]
  IC50 cytotoxicity, CMK: 255 nM
  IC50 cytotoxicity, Karpas-299: 10 nM
  IC50 cytotoxicity, MOLM-13: 579 nM
  IC50 cytotoxicity, TF-1: 299 nM

B2: 5D9 IgG (antibody, V domains shown)
VH: QVQLVQSGAEVKKPGASVKVSCKASGYTFTSYYMHWVRQAPGQGLEWMGIINPSGGSTSYAQKFQGRVTMTRDTSTSTVYMELSSLRSEDTAVYYCARSYIDMDYWGQGTLVTVSS
VL: EIVLTQSPGTLSLSPGERATLSCRASQSVSSSYLAWYQQKPGQAPRLLIYGASSRATGIPDRFSGSGSGTDFTLTISRLEPEDFAVYYCQQDNWSPTFGQGTKVEIK
notes: human IgG1
[3]
  binding result: no binding (tested: 500 nM)
[4]
  binding result: binds

B3: 5D9 Fab (Fab, V domains shown)
VH: B2 VH
VL: B2 VL
[5]
  binding result: no binding

B4: 6B6 Fab (Fab, V domains shown)
VH: B2 VH with I101V
VL: B2 VL with N93I
[5]
  binding result: no binding

B5: Tim3_0016 Fab-PE24 construct (Fab, V domains shown)
VH: QVTLKESGPGILQPSQTLRLTCSFSGFSLSTSGMSVGWIRQPSGKGLEWLAHIWLNDDVFFNPALKSRLTISKDTSNNQVFLQIASVVTADTATYYCVRANGYLYALDYWGQGTSVTVSS
VL: QIVLTQSPAIMSASPGQKVTITCSASSSVNYTQWYQQKLGSSPKLWIYDAFKLAPGVPARFSGSGTGTSYSLTISSMEAEDAASYFCHQWSSYPWTFGGGTKLEIK
Human TIM-3 on cells [1]
  IC50 cytotoxicity, primary AML CD34+ PB0135: > 691 nM
  IC50 cytotoxicity, primary AML CD34+ PB0136: > 691 nM
Human TIM-3 on cells [2]
  IC50 cytotoxicity, CMK: 225 nM
  IC50 cytotoxicity, Karpas-299: 4 nM
  IC50 cytotoxicity, MOLM-13: 459 nM
  IC50 cytotoxicity, TF-1: 534 nM

B6: aTim3 0016MutNS (antibody, V domains shown)
VH: B5 VH
VL: B5 VL with N30S
Cynomolgus Tim3 (ELISA) [6]
  EC50: 9.7 ng/mL
Cynomolgus Tim3 (ELISA) [7]
  inflexion point: 5.5 ng/mL
Human TIM-3 on cells [8]
  EC50: 9.1 ng/mL
Tim3-ECD-His-Biotin [9]
  inflexion point: 6.5 ng/mL
Human TIM-3 on cells [10]
  inflexion point: 8.5 ng/mL
Tim3-ECD-His-Biotin [11]
  EC50: 8.5 ng/mL

B7: aTim3 0018MutNS (antibody, V domains shown)
VH: B5 VH with R19S, S67R, T114I
VL: B5 VL with N30S
notes: also called aT3m3 0018MutNS
Cynomolgus Tim3 (ELISA) [6]
  EC50: 11.9 ng/mL
Cynomolgus Tim3 (ELISA) [7]
  inflexion point: 6.5 ng/mL
Human TIM-3 on cells [8]
  EC50: 11.2 ng/mL
Tim3-ECD-His-Biotin [9]
  inflexion point: 6.5 ng/mL
Human TIM-3 on cells [10]
  inflexion point: 11.1 ng/mL
Tim3-ECD-His-Biotin [11]
  EC50: 10.3 ng/mL

B8: 15B6 Fab (Fab, V domains shown)
VH: QVQLVQSGAEVKKPGASVKVSCKASGYTFTSYYMHWVRQAPGQGLEWMGIINPSGGSTSYAQKFQGRVTMTRDTSTSTVYMELSSLRSEDTAVYYCARNYYIGIVPFDYWGQGTLVTVSS
VL: QAVVTQEPSLTVSPGGTVTLTCGSSTGAVTTSNYANWVQEKPGQAFRGLIGGTNKRAPGTPARFSGSLLGGKAALTLSGAQPEDEAEYYCALWYSNLWVFGGGTKLTVL
[12]
  Kd: 19.1 nM
[13]
  binding result: no binding
[14]
  Kd: 13.9 nM
[15]
  binding result: no binding
[16]
  binding result: no binding

B9: 21A5 Fab (Fab, V domains shown)
VH: not shown
VL: B8 VL
[13]
  binding result: no binding
[15]
  binding result: no binding

B10: 16F12 Fab (Fab, V domains shown)
VH: B8 VH with Y100F, Y101T, I102V, G103L, I104R
VL: B8 VL
[12]
  Kd: 68 nM
[13]
  binding result: no binding
[14]
  Kd: 90.9 nM
[15]
  binding result: no binding
[16]
  binding result: no binding

B11: 21G8 Fab (Fab, V domains shown)
VH: not shown
VL: B8 VL
[13]
  binding result: no binding

B12: 16D5 Fab (Fab, V domains shown)
VH: not shown
VL: B8 VL
[13]
  binding result: no binding
[15]
  binding result: no binding
[16]
  binding result: no binding

B13: 11F8 IgG (antibody, V domains shown)
VH: QVQLVQSGAEVKKPGSSVKVSCKASGGTFSSYAISWVRQAPGQGLEWMGGIIPIFGTANYAQKFQGRVTITADKSTSTAYMELSSLRSEDTAVYYCARAVFYRAWYSFDYWGQGTTVTVSS
VL: DIQMTQSPSTLSASVGDRVTITCRASQSISSWLAWYQQKPGKAPKLLIYDASSLESGVPSRFSGSGSGTEFTLTISSLQPDDFATYYCQQYTSPPPTFGQGTKVEIK
notes: human IgG1
[4]
  binding result: binds

B14: 11F8 Fab (Fab, V domains shown)
VH: B13 VH
VL: B13 VL
[5]
  Kd: 1200 nM

Source: patent US20210087291A1 (Hoffmann-La Roche, published 2021)
